Series [1] can be described thus: Solubility assessment in various solvents. In kind it is physicochemical. The settings on record: for Solubility (in words): in DMSO and PBS, did not require sonication. The procedure: A small sample containing the (co-)polymer of interest (e.g., PLA or PLGA) and the ANG-(1-7) oligopeptide (total sample size: ˜1 mg) was placed into a microfuge tube. The solvent of interest (e.g., DMSO, NMP, BB, and/or BzOH) was added in μL aliquots until the drug compound was in solution. The samples were left overnight to fully dissolve and were sonicated the following day, as was necessary to fully solubilize the sample. Solubility was determined when/if a clear solution was obtained.
Solubility assessment was performed for the ANG-(1-7) oligopeptide of the disclosure across multiple different solvents shown in Table 6, below. […] All other solvents required sonication to fully dissolve the ANG-(1-7) oligopeptide. DMSO is a suitable starting solvent for gel formulation evaluation.
Solubility of PNA5 in various solvents was tested and for potential use with this peptide. […] All other solvents required sonication to fully dissolve PNA5. DMSO is a suitable starting solvent for gel formulation evaluation using the PNA5 peptide. Benzyl benzoate and benzyl alcohol may also be useful solvents or solvent additives.

The conditions of series [2]: FDA-approved food additive; cited from earlier work.

Where no end group is shown, it is not given here. [ ]: non-standard residue; d: D form. glycan = not defined here

This is an account of results in patent US20250332213A1, “EXTENDED-RELEASE INJECTABLE GEL FORMULATIONS CONTAINING ANGIOTENSIN-(1-7) OLIGOPEPTIDES OR VARIANTS THEREOF” (ProNeurogen, Inc., priority 2021, published 2025).

Take `CC[C@H](C)[C@H](NC(=O)[C@H](Cc1ccc(O)cc1)NC(=O)[C@@H](NC(=O)[C@H](CCCNC(=N)N)NC(=O)[C@@H](N)CC(=O)O)C(C)C)C(=O)N[C@@H](Cc1c[nH]cn1)C(=O)N1CCC[C@H]1C(=O)O` [ANG-(1-7), Asp-Arg-Val-Tyr-Ile-His-Pro]: the “Solubility (in words)” value in series [1] is listed as “very high solubility”. Besides, the Concentration stood at 250 mg/mL in series [1] (solvent Benzyl Alcohol); 250 mg/mL in series [1] (solvent Benzyl Benzoate); 500 mg/mL in series [1] (solvent DMSO); 250 mg/mL in series [1] (solvent Ethoxylated Castor Oil); 250 mg/mL in series [1] (solvent Ethyl Laureate); 250 mg/mL in series [1] (solvent Ethyl Oleate). For the same molecule, the Concentration in series [1] (solvent NMP) is reported as 250 mg/mL; in series [1] (solvent Oleic Acid) it was 250 mg/mL; in series [1] (solvent PBS at pH 7.4), 500 mg/mL; in series [1] (solvent Polyethylene Glycol 300), 250 mg/mL; in series [1] (solvent Triacetin), 250 mg/mL; in series [1] (solvent Triethyl Citrate) it was 250 mg/mL.
Regarding `CC(=O)OC[C@H]1O[C@H](OC2(COC(C)=O)O[C@H](COC(=O)C(C)C)[C@@H](OC(=O)C(C)C)[C@@H]2OC(=O)C(C)C)[C@H](OC(=O)C(C)C)[C@@H](OC(=O)C(C)C)[C@@H]1OC(=O)C(C)C` (some centres unmarked) [SAIB, sucrose acetoisobutyrate], the “safe human daily intake” value in series [2] is listed as “up to 20 mg/kg”.
For “PNA5: ANG-(1-7) variant, SEQ ID NO: 10: Asp Arg Val Tyr Ile His Ser* (glycosylated serine), carboxyl terminal NH2 ([dD][dR][dV][dY][dI][dH][dS](glycan)-NH2; reading uncertain; also: printed as Asp Arg Val Tyr Ile His Ser*)”, the Concentration in series [1] (Table 9, solvent Benzyl Alcohol (BA)) came out at 100 mg/mL; in series [1] (Table 9, solvent Benzyl Benzoate (BB)), 100 mg/mL; in series [1] (Table 9, solvent DMA) it was 100 mg/mL; in series [1] (Table 9, solvent DMSO) it was 500 mg/mL; in series [1] (Table 9, solvent Ethoxylated Castor Oil), 100 mg/mL; in series [1] (Table 9, solvent Ethyl Laurate) it was 100 mg/mL. For the same molecule, the Concentration in series [1] (Table 9, solvent Ethyl Oleate) was 100 mg/mL; in series [1] (Table 9, solvent NMP), 100 mg/mL; in series [1] (Table 9, solvent Oleic Acid), 100 mg/mL; in series [1] (Table 9, solvent PBS), 100 mg/mL; in series [1] (Table 9, solvent Polyethylene Glycol 300) it was 100 mg/mL; in series [1] (Table 9, solvent Triacetin), 100 mg/mL. In addition, the Concentration in series [1] (Table 9, solvent Triethyl Citrate) came out at 100 mg/mL. In addition, the “Solubility (in words)” value in series [1] was “high solubility”. For the same molecule, the “Observation at 0-24 hours” value in series [1] (solvent Benzyl Alcohol (BA), 100 mg/mL) is given as “Clear colorless, fluid”; in series [1] (solvent Benzyl Benzoate (BB), 100 mg/mL), “Clear colorless, fluid”; in series [1] (solvent DMA, 100 mg/mL) it was “Insoluble”; in series [1] (solvent DMSO, 500 mg/mL) it was “Clear colorless, fluid”; in series [1] (solvent Ethoxylated Castor Oil, 100 mg/mL) it was “Insoluble”; in series [1] (solvent Ethyl Laurate, 100 mg/mL), “Insoluble”. For the same molecule, the “Observation at 0-24 hours” value is recorded as “Insoluble” in series [1] (solvent Ethyl Oleate, 100 mg/mL); “Insoluble” in series [1] (solvent NMP, 100 mg/mL); “Insoluble” in series [1] (solvent Oleic Acid, 100 mg/mL); “Clear colorless, fluid” in series [1] (solvent PBS, 100 mg/mL); “Insoluble” in series [1] (solvent Polyethylene Glycol 300, 100 mg/mL); “Insoluble” in series [1] (solvent Triacetin, 100 mg/mL). In addition, the “Observation at 0-24 hours” value in series [1] (solvent Triethyl Citrate, 100 mg/mL) was “Insoluble”.
